Results published in the Immune Epitope Database (IEDB).

What was measured:
HLA-B*39:01 = assay: IEDB peptide-MHC binding, purified MHC/direct/fluorescence; filed as Kd, often an IC50 or EC50 that approximates it; ≥ and ≤ were set here for values at or beyond the usual limits of such assays
HLA-B*51:01 = assay: as above
HLA-A*02:16 = assay: as above
HLA-B*18:01 = assay: as above
HLA-B*27:03 = assay: as above
HLA-A*26:01 = assay: as above
HLA-A*02:19 = assay: as above
HLA-A*02:01 = assay: as above
HLA-A*02:03 [1] = assay: as above
HLA-B*15:01 = assay: as above
HLA-A*02:12 = assay: as above
HLA-A*03:01 = assay: as above
HLA-B*46:01 [2] = assay: as above
HLA-A*02:11 = assay: as above; conditions: source organism: Yersinia pestis CA88-4125
HLA-B*57:01 = assay: as above
HLA-B*15:02 [3] = assay: IEDB peptide-MHC binding, purified MHC/competitive/fluorescence; filed as Kd, often an IC50 or EC50 that approximates it; ≥ and ≤ were set here for values at or beyond the usual limits of such assays
HLA-B*44:02 = assay: IEDB peptide-MHC binding, purified MHC/direct/fluorescence; filed as Kd, often an IC50 or EC50 that approximates it; ≥ and ≤ were set here for values at or beyond the usual limits of such assays; conditions: source organism: Brucella melitensis
HLA-B*40:01 = assay: as above
HLA-A*01:01 = assay: as above
HLA-B*08:01 [4] = assay: as above
HLA-B*58:01 = assay: as above
HLA-A*31:01 = assay: as above
HLA-A*11:01 = assay: as above
HLA-A*69:01 = assay: as above
HLA-B*73:01 = assay: as above; conditions: source organism: Brucella suis 1330
HLA-B*07:02 = assay: as above
HLA-B*27:05 [5] = assay: as above
HLA-C*08:02 = assay: as above
HLA-B*46:01 [6] = assay: IEDB peptide-MHC binding, purified MHC/competitive/fluorescence; filed as Kd, often an IC50 or EC50 that approximates it; ≥ and ≤ were set here for values at or beyond the usual limits of such assays; conditions: source organism: SARS-CoV1
HLA-C*15:02 = assay: IEDB peptide-MHC binding, purified MHC/direct/fluorescence; filed as Kd, often an IC50 or EC50 that approximates it; ≥ and ≤ were set here for values at or beyond the usual limits of such assays; conditions: source organism: SARS-CoV1
HLA-C*12:03 = assay: as above
HLA-C*03:03 = assay: as above; conditions: source organism: SARS-CoV1
HLA-C*14:02 = assay: as above; conditions: source organism: SARS-CoV1
HLA-B*08:01 [7] = assay: IEDB peptide-MHC binding, purified MHC/competitive/fluorescence; filed as Kd, often an IC50 or EC50 that approximates it; ≥ and ≤ were set here for values at or beyond the usual limits of such assays; conditions: source organism: Influenza A virus H3N2
HLA-A*02:03 [8] = assay: as above; conditions: source organism: Influenza A virus H3N2
HLA-B*27:05 [9] = assay: as above; conditions: source organism: Influenza A virus H3N2
HLA-A*26:02 = assay: as above; conditions: source organism: Influenza A virus H3N2
HLA-A*68:02 = assay: IEDB peptide-MHC binding, purified MHC/direct/fluorescence; filed as Kd, often an IC50 or EC50 that approximates it; ≥ and ≤ were set here for values at or beyond the usual limits of such assays; conditions: source organism: H9N2 subtype Influenza A virus (A/swine/Korea/S83/2004(H9N2))
HLA-B*15:17 = assay: as above; conditions: source organism: H9N2 subtype Influenza A virus (A/swine/Korea/S83/2004(H9N2))
HLA-B*15:02 [10] = assay: as above; conditions: source organism: H9N2 subtype Influenza A virus (A/swine/Korea/S83/2004(H9N2))
HLA-B*48:01 = assay: as above
HLA-C*06:02 = assay: as above; conditions: source organism: Kurkino virus
HLA-C*07:02 = assay: as above; conditions: source organism: Kurkino virus
[11] = source organism: Yersinia enterocolitica subsp. enterocolitica 8081
[12] = source organism: Yersinia pestis CA88-4125
[13] = source organism: Brucella melitensis
[14] = source organism: Bacillus cereus
[15] = source organism: H9N2 subtype Influenza A virus (A/swine/Korea/S83/2004(H9N2))
[16] = source organism: Coxiella burnetii Q321
[17] = source organism: Orthohantavirus dobravaense

LAYLAGWII was tested. Which Kd (HLA-B*39:01; [11]) did it give?
The Kd was no less than 20 µM.

What about the Kd (HLA-B*51:01; [11]) of the same sequence?
The Kd was 1.39 µM.

What about the Kd (HLA-A*02:16; [11]) of the same sequence?
Its Kd is no less than 20 µM.

What about the Kd (HLA-B*18:01; [11]) of the same sequence?
Its Kd is no less than 20 µM.

And the Kd (HLA-B*27:03; [11])?
Its Kd is no less than 20 µM.

And the Kd (HLA-A*26:01; [11])?
Its Kd is no less than 20 µM.

And the Kd (HLA-A*02:19; [11])?
The Kd was no less than 20 µM.

And the Kd (HLA-A*02:01; [11])?
The Kd was no less than 20 µM.

And the Kd (HLA-A*02:03 [1]; [11])?
The Kd was no less than 20 µM.

And the Kd (HLA-B*15:01; [11])?
The Kd was no less than 20 µM.

What about the Kd (HLA-A*02:12; [11]) of the same sequence?
The Kd was no less than 20 µM.

What about the Kd (HLA-A*03:01; [11]) of the same sequence?
Its Kd is no less than 20 µM.

And the Kd (HLA-B*46:01 [2]; [11])?
Its Kd is no less than 20 µM.

What does the source list for KLLARFLFE?
Kd (HLA-A*02:11): ≥ 20 µM; Kd (HLA-B*39:01; [12]): ≥ 20 µM; Kd (HLA-B*51:01; [12]): ≥ 20 µM; Kd (HLA-A*02:16; [12]): ≥ 20 µM; Kd (HLA-B*18:01; [12]): ≥ 20 µM; Kd (HLA-B*27:03; [12]): ≥ 20 µM; Kd (HLA-A*26:01; [12]): ≥ 20 µM; Kd (HLA-A*02:19; [12]): ≥ 20 µM; Kd (HLA-A*02:01; [12]): ≥ 20 µM; Kd (HLA-B*57:01; [12]): ≥ 20 µM; Kd (HLA-A*02:03 [1]; [12]): ≥ 20 µM; Kd (HLA-B*15:01; [12]): ≥ 20 µM; Kd (HLA-A*02:12; [12]): ≥ 20 µM; Kd (HLA-A*03:01; [12]): ≥ 20 µM; Kd (HLA-B*46:01 [2]; [12]): ≥ 20 µM

Which Kd (HLA-B*15:02 [3]; source organism: Vibrio vulnificus YJ016) does the source give for LLRMFDHPF here?
The Kd was 0.0209 µM.

RVISDGYFK was tested. Which Kd (HLA-B*44:02) did it give?
The Kd was no less than 20 µM.

And the Kd (HLA-B*40:01; [13])?
Its Kd is no less than 20 µM.

And the Kd (HLA-A*01:01; [13])?
The Kd was no less than 20 µM.

And the Kd (HLA-A*26:01; [13])?
Its Kd is no less than 20 µM.

And the Kd (HLA-B*08:01 [4]; [13])?
Its Kd is no less than 20 µM.

And the Kd (HLA-B*58:01; [13])?
The Kd was no less than 20 µM.

And the Kd (HLA-A*31:01; [13])?
Its Kd is 0.042 µM.

And the Kd (HLA-A*11:01; [13])?
The Kd was 0.0538 µM.

What about the Kd (HLA-A*69:01; [13]) of the same sequence?
Its Kd is no less than 20 µM.

What about the Kd (HLA-A*02:01; [13]) of the same sequence?
Its Kd is no less than 20 µM.

And the Kd (HLA-B*73:01)?
Its Kd is no less than 20 µM.

What about the Kd (HLA-B*15:01; [13]) of the same sequence?
Its Kd is no less than 20 µM.

And the Kd (HLA-B*07:02; [13])?
Its Kd is no less than 20 µM.

And the Kd (HLA-A*03:01; [13])?
Its Kd is 0.395 µM.

And the Kd (HLA-B*27:05 [5]; [13])?
The Kd was 7.19 µM.

Which Kd (HLA-C*08:02; source organism: Bacillus anthracis str. A0389) does the source give for YTLNDAPYI here?
The Kd was 0.181 µM.

And the Kd (HLA-A*69:01; [14])?
The Kd was 0.0024 µM.

What about the Kd (HLA-A*02:01; [14]) of the same sequence?
Its Kd is 0.0381 µM.

With KSYEHQTPF as the sequence, how does the Kd (HLA-B*46:01 [6]) read?
The Kd was 0.0469 µM.

What about the Kd (HLA-C*15:02) of the same sequence?
The Kd was 0.011 µM.

What about the Kd (HLA-B*40:01; source organism: SARS-CoV1) of the same sequence?
Its Kd is no less than 91.4 µM.

And the Kd (HLA-A*01:01; source organism: SARS-CoV1)?
The Kd was no less than 27.1 µM.

And the Kd (HLA-C*08:02; source organism: SARS-CoV1)?
Its Kd is no less than 20 µM.

What about the Kd (HLA-C*12:03; source organism: SARS-CoV1) of the same sequence?
Its Kd is 0.014 µM.

What about the Kd (HLA-B*08:01 [4]; source organism: SARS-CoV1) of the same sequence?
The Kd was 14.4 µM.

And the Kd (HLA-B*58:01; source organism: SARS-CoV1)?
The Kd was 0.088 µM.

And the Kd (HLA-A*31:01; source organism: SARS-CoV1)?
Its Kd is 0.186 µM.

And the Kd (HLA-A*11:01; source organism: SARS-CoV1)?
Its Kd is 0.837 µM.

What about the Kd (HLA-C*03:03) of the same sequence?
The Kd was 0.035 µM.

What about the Kd (HLA-B*15:01; source organism: SARS-CoV1) of the same sequence?
Its Kd is 0.169 µM.

What about the Kd (HLA-B*07:02; source organism: SARS-CoV1) of the same sequence?
Its Kd is 5.72 µM.

What about the Kd (HLA-A*03:01; source organism: SARS-CoV1) of the same sequence?
The Kd was 0.0898 µM.

And the Kd (HLA-B*27:05 [5]; source organism: SARS-CoV1)?
The Kd was 4.42 µM.

What about the Kd (HLA-C*14:02) of the same sequence?
Its Kd is 0.093 µM.

For FQKDAKVLF, which Kd (HLA-B*08:01 [7]) is on record?
The Kd was no less than 20 µM.

And the Kd (HLA-A*02:03 [8])?
Its Kd is no less than 20 µM.

What about the Kd (HLA-B*27:05 [9]) of the same sequence?
Its Kd is 3.34 µM.

What about the Kd (HLA-A*26:02) of the same sequence?
The Kd was no less than 20 µM.

And the Kd (HLA-B*39:01; source organism: Influenza A virus(A/swine/Shandong/fZC/2003(H9N2)))?
The Kd was no less than 20 µM.

And the Kd (HLA-A*68:02)?
Its Kd is no less than 20 µM.

What about the Kd (HLA-B*15:17) of the same sequence?
Its Kd is no less than 20 µM.

What about the Kd (HLA-A*01:01; [15]) of the same sequence?
Its Kd is no less than 20 µM.

What about the Kd (HLA-B*58:01; [15]) of the same sequence?
The Kd was no less than 20 µM.

What about the Kd (HLA-A*31:01; [15]) of the same sequence?
The Kd was no less than 20 µM.

And the Kd (HLA-A*11:01; [15])?
The Kd was no less than 20 µM.

What about the Kd (HLA-B*15:02 [10]) of the same sequence?
The Kd was 1.72 µM.

What about the Kd (HLA-A*69:01; [15]) of the same sequence?
The Kd was no less than 20 µM.

And the Kd (HLA-A*02:01; [15])?
Its Kd is no less than 20 µM.

And the Kd (HLA-B*57:01; [15])?
Its Kd is no less than 20 µM.

And the Kd (HLA-B*48:01; [15])?
Its Kd is 0.99 µM.

What about the Kd (HLA-B*15:01; [15]) of the same sequence?
The Kd was 0.116 µM.

And the Kd (HLA-B*07:02; [15])?
Its Kd is no less than 20 µM.

What about the Kd (HLA-B*46:01 [2]; [15]) of the same sequence?
Its Kd is no less than 20 µM.

For LQLARDGMF, which Kd (HLA-B*15:02 [3]; source organism: Brucella suis ATCC 23445) is on record?
Its Kd is no less than 20 µM.

IAFTRLFTV was tested. Which Kd (HLA-B*39:01; [16]) did it give?
Its Kd is no less than 20 µM.

What about the Kd (HLA-B*51:01; [16]) of the same sequence?
The Kd was 3.24 µM.

What about the Kd (HLA-B*18:01; [16]) of the same sequence?
The Kd was no less than 20 µM.

What about the Kd (HLA-B*27:03; [16]) of the same sequence?
The Kd was no less than 20 µM.

And the Kd (HLA-A*26:01; [16])?
Its Kd is no less than 20 µM.

And the Kd (HLA-C*12:03; source organism: Coxiella burnetii RSA 493)?
The Kd was no more than 0.001 µM.

And the Kd (HLA-B*15:01; [16])?
Its Kd is no less than 20 µM.

And the Kd (HLA-A*03:01; [16])?
Its Kd is no less than 20 µM.

What about the Kd (HLA-B*46:01 [2]; [16]) of the same sequence?
Its Kd is no less than 20 µM.

With RRNDGVVQY as the sequence, how does the Kd (HLA-C*06:02) read?
The Kd was 0.061 µM.

And the Kd (HLA-B*48:01; [17])?
The Kd was no less than 20 µM.

What about the Kd (HLA-C*07:02) of the same sequence?
The Kd was 0.029 µM.

What about the Kd (HLA-B*27:05 [5]; [17]) of the same sequence?
Its Kd is 0.146 µM.
